This test deals with FLAG-tagged human importin-α7 (human) (UniProt O60684). Briefly: co-IP.

Substance “nucleoprotein (NP) of 2009 pandemic H1N1 influenza A virus A/Hamburg/NY1580/09, parental (natural protein)” gave a fold binding against importin-α1 of 10 fold.

The values above are taken from doi:10.1101/447979.
